Values quoted from earlier work as cited in PMC8602370.

Target: PARP1 (Homo sapiens) (UniProt P09874)
Sequence (P09874 2-1014): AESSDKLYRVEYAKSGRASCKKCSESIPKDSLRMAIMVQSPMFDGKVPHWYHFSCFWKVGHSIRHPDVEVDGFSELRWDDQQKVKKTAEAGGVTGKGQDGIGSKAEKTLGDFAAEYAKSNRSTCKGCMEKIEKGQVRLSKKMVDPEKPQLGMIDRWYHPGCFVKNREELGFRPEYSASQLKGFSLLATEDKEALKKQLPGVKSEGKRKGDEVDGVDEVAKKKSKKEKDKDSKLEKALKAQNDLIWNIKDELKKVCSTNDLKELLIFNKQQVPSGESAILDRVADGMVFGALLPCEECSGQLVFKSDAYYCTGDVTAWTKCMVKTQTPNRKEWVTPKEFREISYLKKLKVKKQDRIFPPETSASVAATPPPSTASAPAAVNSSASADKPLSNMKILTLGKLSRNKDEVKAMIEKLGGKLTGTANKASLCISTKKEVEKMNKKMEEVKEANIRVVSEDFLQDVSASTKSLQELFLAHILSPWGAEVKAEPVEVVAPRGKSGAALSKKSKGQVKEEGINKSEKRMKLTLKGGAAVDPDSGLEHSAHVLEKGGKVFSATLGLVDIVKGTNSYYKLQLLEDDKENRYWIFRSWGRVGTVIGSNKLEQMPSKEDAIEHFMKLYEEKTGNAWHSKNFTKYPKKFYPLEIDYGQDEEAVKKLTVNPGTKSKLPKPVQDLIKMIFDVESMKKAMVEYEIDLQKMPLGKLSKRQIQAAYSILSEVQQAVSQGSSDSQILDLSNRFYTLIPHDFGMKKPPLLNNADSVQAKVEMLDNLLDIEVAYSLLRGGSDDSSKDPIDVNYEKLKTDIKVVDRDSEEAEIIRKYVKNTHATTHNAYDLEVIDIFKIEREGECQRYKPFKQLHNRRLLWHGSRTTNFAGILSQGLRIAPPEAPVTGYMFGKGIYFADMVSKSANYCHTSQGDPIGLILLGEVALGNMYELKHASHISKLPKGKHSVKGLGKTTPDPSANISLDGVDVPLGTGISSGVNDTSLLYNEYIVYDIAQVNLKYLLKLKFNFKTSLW

HPF1, sequence (Q9NWY4 whole entry): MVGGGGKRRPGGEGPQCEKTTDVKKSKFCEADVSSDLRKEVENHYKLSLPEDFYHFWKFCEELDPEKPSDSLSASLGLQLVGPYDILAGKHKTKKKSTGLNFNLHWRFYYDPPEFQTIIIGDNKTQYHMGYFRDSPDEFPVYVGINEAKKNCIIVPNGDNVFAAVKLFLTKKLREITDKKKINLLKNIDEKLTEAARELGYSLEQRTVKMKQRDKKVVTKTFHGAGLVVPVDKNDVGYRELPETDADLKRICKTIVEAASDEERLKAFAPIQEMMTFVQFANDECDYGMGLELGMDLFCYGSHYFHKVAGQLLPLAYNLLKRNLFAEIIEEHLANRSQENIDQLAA

- Kd: 3.5 µM
Substance: HPF1 (from UniProt Q9NWY4)
